Here are results for three substances from patent publication US20220220204A1.

Assay [1] deals with human LAG-3 (LAG-3 effector Jurkat T cells) (human) (UniProt P18627). The assay is described as follows: cell-based or functional assay.
The target in the next assay is PD-L1 (UniProt Q9NZQ7). The assay is described as follows: FACS binding.
The target of assay [2] is human PD-L1 (PD-L1 aAPC/CHO-K1 cells) (human) (UniProt Q9NZQ7). The assay is described as follows: cell-based or functional assay.
human PD-L1 (PD-L1 aAPC/CHO-K1 cells) (human), sequence (Q9NZQ7 19-290): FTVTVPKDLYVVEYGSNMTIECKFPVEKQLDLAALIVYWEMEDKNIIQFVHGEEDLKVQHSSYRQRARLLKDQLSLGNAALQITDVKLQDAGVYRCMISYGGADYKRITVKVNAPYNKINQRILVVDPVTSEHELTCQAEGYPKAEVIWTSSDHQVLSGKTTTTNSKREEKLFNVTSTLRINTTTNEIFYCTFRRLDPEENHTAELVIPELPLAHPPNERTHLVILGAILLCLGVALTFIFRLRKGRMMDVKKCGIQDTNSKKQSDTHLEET

human LAG-3 (LAG-3 effector Jurkat T cells) (human), sequence (P18627 23-525): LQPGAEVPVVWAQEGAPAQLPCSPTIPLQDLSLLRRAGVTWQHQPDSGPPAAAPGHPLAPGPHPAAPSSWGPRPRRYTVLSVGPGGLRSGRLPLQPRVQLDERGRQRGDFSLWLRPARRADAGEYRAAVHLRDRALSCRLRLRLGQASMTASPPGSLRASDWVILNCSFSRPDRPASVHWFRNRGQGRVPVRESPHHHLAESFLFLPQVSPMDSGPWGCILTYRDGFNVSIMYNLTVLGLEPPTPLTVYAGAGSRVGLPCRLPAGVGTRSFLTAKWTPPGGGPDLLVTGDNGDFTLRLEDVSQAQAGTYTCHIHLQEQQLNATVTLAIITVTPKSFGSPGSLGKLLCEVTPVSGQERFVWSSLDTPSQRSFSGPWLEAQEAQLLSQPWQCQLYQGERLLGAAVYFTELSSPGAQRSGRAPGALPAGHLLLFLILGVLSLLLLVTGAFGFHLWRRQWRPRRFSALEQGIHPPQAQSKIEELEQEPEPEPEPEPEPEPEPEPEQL
PD-L1, sequence (Q9NZQ7 19-290): as the sequence (Q9NZQ7 19-290) above

For 25F7 biosimilar (antibody), in assay [1], the Bottom (LAG-3 blockade bioassay) amounted to 312000, the Log EC50 (LAG-3 blockade bioassay) turned out to be 0.841 and the Top (LAG-3 blockade bioassay) is 918000.

As for human IgG, the EC50 in the assay with PD-L1 was 8.88 pM.

In assay [2], Tecentriq biosimilar (antibody) had a Bottom (PD-1/PD-L1 blockade bioassay) of 28700, an EC50 (PD-1/PD-L1 blockade bioassay) of 0.342, a Log EC50 (PD-1/PD-L1 blockade bioassay) of -0.467 and a Top (PD-1/PD-L1 blockade bioassay) of 117000.
